Test results reported in paper PMC10334339.

Substrate: O=c1[nH]c(=O)n([C@H]2C[C@H](O)[C@@H](COP(=O)(O)O)O2)cc1CO
Experiment: purified protein
Format: biochemical, Homo sapiens

B1: 2′-Deoxynucleoside 5′-monophosphate N-glycosidase 1 (DNPH1) (Homo sapiens) (protein)
chain: AAAMVPGRSESWERGEPGRPALYFCGSIRGGREDRTLYERIVSRLRRFGTVLTEHVAAAELGARGEEAAGGDRLIHEQDLEWLQQADVVVAEVTQPSLGVGYELGRAVAFNKRILCLFRPQSGRVLSAMIRGAADGSRFQVWDYEEGEVEALLDRYFEADPPGQVAASPDPTT
Km: 6.3 ± 0.5 µM
